Test results published in patent publication US20070014810A1, “Inducing cellular immune responses to human papillomavirus using peptide and nucleic acid compositions” (priority 2003, published 2007).

Key:
HLA-A*0101 (human) = assay: inhibition of 125I-labelled probe peptide binding to purified HLA, gel filtration; standard peptide
HLA-A*2902 (human) [1] = assay: as above
HLA-A*2902 (human) [2] = assay: inhibition of 125I-labelled probe peptide binding to purified HLA, gel filtration; standard peptide (allele listed again under supertype A24)
HLA-A*3002 (human) [3] = assay: inhibition of 125I-labelled probe peptide binding to purified HLA, gel filtration; standard peptide
HLA-A*3002 (human) [4] = assay: inhibition of 125I-labelled probe peptide binding to purified HLA, gel filtration; standard peptide (allele listed again under supertype A24)
HLA-DRB1*0901 (human) = molecular target: T1, HLA-DRB1*0901 (human)
T1 chain 1: not shown
T1 chain 2: not shown

B1: standard peptide … (peptide)
peptide: YTAVVPLVY
modifications: not checked
Question: Which results are given for B1?
Answer: IC50 (HLA-A*0101 (human)): 5 nM; IC50 (HLA-A*2902 (human) [1]): 5 nM; IC50 (HLA-A*2902 (human) [2]): 5 nM

B2: standard peptide … (peptide)
peptide: RISGVDRYY
modifications: not checked
Question: How did the IC50 (HLA-A*3002 (human) [3]) turn out when B2 was run?
Answer: 3 nM

Question: And the IC50 (HLA-A*3002 (human) [4])?
Answer: 3 nM

B3: standard peptide … (peptide)
peptide: AKFVAAWTLKAAA
modifications: not checked
Question: Which IC50 (HLA-DRB1*0901 (human)) does the source give for B3 here?
Answer: 75 nM
